Read-outs that look alike come from different tables or passages of the source.
T1: Importin β (Kap95p), scImpβ-His6 (yeast, UniProt Q06142 1-861)
T1 sequence (looked up): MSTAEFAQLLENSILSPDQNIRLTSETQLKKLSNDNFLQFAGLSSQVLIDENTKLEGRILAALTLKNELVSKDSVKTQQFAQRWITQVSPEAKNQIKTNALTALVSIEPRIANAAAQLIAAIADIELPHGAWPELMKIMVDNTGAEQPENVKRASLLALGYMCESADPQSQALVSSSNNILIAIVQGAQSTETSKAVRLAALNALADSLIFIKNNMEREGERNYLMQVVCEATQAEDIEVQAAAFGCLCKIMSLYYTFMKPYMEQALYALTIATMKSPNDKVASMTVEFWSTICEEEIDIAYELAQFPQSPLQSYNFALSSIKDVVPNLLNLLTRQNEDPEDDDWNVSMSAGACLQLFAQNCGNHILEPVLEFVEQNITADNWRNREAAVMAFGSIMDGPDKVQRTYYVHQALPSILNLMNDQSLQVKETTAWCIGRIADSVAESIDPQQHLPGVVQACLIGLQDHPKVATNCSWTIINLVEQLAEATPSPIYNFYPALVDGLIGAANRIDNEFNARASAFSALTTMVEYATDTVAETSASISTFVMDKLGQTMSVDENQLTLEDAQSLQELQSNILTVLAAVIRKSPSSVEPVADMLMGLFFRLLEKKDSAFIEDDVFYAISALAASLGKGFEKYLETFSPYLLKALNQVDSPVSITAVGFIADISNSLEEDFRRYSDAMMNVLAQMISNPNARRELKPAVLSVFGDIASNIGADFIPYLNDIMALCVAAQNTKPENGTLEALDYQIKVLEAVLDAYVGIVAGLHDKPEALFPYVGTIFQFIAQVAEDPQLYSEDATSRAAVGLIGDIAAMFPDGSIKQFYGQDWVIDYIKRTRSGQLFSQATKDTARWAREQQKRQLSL

B1: IBB-MBP-mEGFP (domain or fragment, Saccharomyces cerevisiae, UniProt Q02821 2-63, looked up)
chain: DNGTDSSTSKFVPEYRRTNFKNKGRFSADELRRRRDTQQVELRKAKRDEALAKRRNFIPPTD
B2: IBB-ZsGreen (domain or fragment, Saccharomyces cerevisiae, UniProt Q02821 2-63, looked up)
chain: B1 chain

Legend:
[1] = target: T1, Importin β (Kap95p), scImpβ-His6; experiment: SEC
[2] = target: T1, Importin β (Kap95p), scImpβ-His6; experiment: SEC; remark: listed apart in the source

Row | Binder | binding result [1] | binding result [2]
1 | B1 | binds | –
2 | B2 | – | binds
